In this experiment the target is HR-N1, SARS S protein amino acids 882-973 (SARS-CoV (Urbani strain)) (UniProt P59594). Put plainly: AUC.

Turning to “HR-N1, SARS S protein amino acids 882-973 (from UniProt P59594 882-973) (domain or fragment)”, the stoichiometry N (commonly the number of molecules, sites or subunits per partner or assembly) was 4.
